This data set relates to Bacillus subtilis. Nature of the data set: cleaved RNA product abundance (RNA/gDNA barcode ratio) relative to median wild-type variant (ratio to wild type); higher = more accumulation of the downstream cleavage product. Put shortly: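 Oligos with a 9% error rate were used to build barcoded, mutagenized RNase Y cleavage-site windows within truncated aprE or tetM reporter mRNAs, which were integrated into the B. subtilis chromosome. Cultures were grown in LB at 37°C between OD600 0.0003 and 0.3. Cleaved RNA was gel-selected, reverse transcribed and barcode-sequenced, as were genomic DNA barcodes, and UMIs were collapsed. Cleaved product abundance is the scaled RNA:gDNA barcode ratio, with the median construct carrying the unmutated site as reference.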

The mark [1] stands for this setting: experiment (reporter, strain, medium): exp 2b: truncated aprE reporter, strain BJT200, cleavage site: cggR-gapA (positions -7 to +36 mutated).
The mark [2] stands for this setting: experiment (reporter, strain, medium): exp 4a: truncated aprE reporter, strain BJT201 with 2% xylose (RNase J1 expressed), cleavage site: cggR-gapA (positions -7 to +36 mutated).
The mark [3] stands for this setting: experiment (reporter, strain, medium): exp 8a: truncated aprE reporter, strain BJT201 with 2% xylose (RNase J1 expressed), cleavage site: glnRA (positions -5 to +31 mutated).
Where [4] appears, read: experiment (reporter, strain, medium): exp 6: tetM reporter, strain 168, cleavage site: cggR-gapA (positions -7 to +36 mutated).

As to “ACAGACGAAGGAGCCGCAAAGAAGTTATTAAAGGGATGAATAATCCCTCAATATAAATATCTCTCACTTATTTAA”, the “cleaved RNA product abundance” value under setting [1] is 0.283 and the “cleaved RNA product abundance” value under setting [2] turned out to be 0.35.
Regarding “ACAGACGAAGGAGCCGCTAAGAAGTGATTAAGGGATGAATAATCCCTCAATATAAATATCTCTCACTTATTTAAA”, the “cleaved RNA product abundance” value under setting [2] came to 0.419.
For “CGACATGTCCCGCTTCTTTCATTAATCCGTTAGCAACTGTTTTTCAATATACATTTACCTTTTAAGAGGAGGAAT”, the “cleaved RNA product abundance” value under setting [3] was determined as 0.551.
Take “ACAGACGAAGGAGCCGCAAAGAAGTTATTTAGGGATGAATAATCACTCAATATAAATATCTCTCACTTATTTAAA”: the “cleaved RNA product abundance” value under setting [2] was determined as 0.137.
In the case of “ACAGACGAAGGAGCCGCTAAGAAGTTATTAAGGGATGAATAATCCTTCAATATAAATATCTCTCACTTATTTAAA”, the “cleaved RNA product abundance” value is, setting by setting: under setting [1], 0.434; under setting [2], 0.597.
Turning to “ACAGACGAAGGAGCCGCAAAGAAGTTATTAAGGGATGAATAAACCATCAATATAAATATCTCTCACTTATTTAAA”, the “cleaved RNA product abundance” value is, setting by setting: under setting [1], 0.125; under setting [2], 0.101.
With “ACAGACGAAGGAGCCGCAAAGAGGTTATTAAGGCATGAATAATCCCTCAATATAAATATCTCTCACTTATTTAAA”, the “cleaved RNA product abundance” value under setting [1] was found to be 0.0794.
For the sequence “ACAGACGAAGGAGCCGCTAAGAAGTTATTAAGGGATGAATATTCCCTCAATATAAATATCTCTCACTTATTTAAA”, under setting [2], the “cleaved RNA product abundance” value worked out at 0.667.
Take “ACAGACGAAGGAGCCGCAAAGAAGGTATTAAGGGATGAATAATCCCTGAATATAAATATCTCTCACTTATTTAAA”: the “cleaved RNA product abundance” value under setting [2] turned out to be 1.45.
For the sequence “ACAGACGAAGGAGCCGCAAAGAAGTTATTACGGGATGAAAAATCCCTCAATATAAATATCTCTCACTTATTTAAA”, the “cleaved RNA product abundance” value runs as follows: under setting [1], 0.223; under setting [2], 0.321.
“CGACATGTCCCGCTTCTTTCATTAATCCGTTAGCAACTGTTTTGCTATAAACATTTAACTTTTAAGAGGAGGAAT”: the “cleaved RNA product abundance” value under setting [3] amounted to 0.912.
On the same count and under the same terms, with “CGACATGTCCCGCTTCTTTCATTACTCCGTTAGCAATTGTTTTGCTATATACATTTACCTTTTAAGAGGAGGAAT” the figure was 1.23.
For “ACAGACGAAGGAGCCGCAAAGAAGTTATTAAGGGATGAATAATCCCTAAATTTAAATATCTCTCACTTATTTAAA”, the “cleaved RNA product abundance” value under setting [1] came to 0.162.
Regarding “CGACATGTCCCGCTTCTTTCATTAATCCGTTATCAACTGTTTCGCTATATACATTTACCTTTTAAGAGGAGGAAT”, under setting [3], the “cleaved RNA product abundance” value is 0.192.
Consider “ACAGACGAAGGAGCCGCAAAGAAGTTATTAAGTGAGGAATAATCCCTCAATATAAATATCTCTCACTTATTTAAA”, for which the “cleaved RNA product abundance” value under setting [2] turned out to be 0.16.
“ACAGACGAAGGAGCCGCAAAGAAGTGATTAAGGGATGAATAATACCTCAATATAAATATCTCTCACTTATTTAAA”: the “cleaved RNA product abundance” value under setting [1] was determined as 0.105 and the “cleaved RNA product abundance” value under setting [2] came to 0.0889.
As to “CGACATGTCCCGCTTCTTTCATTAATCCGTTAGAAACTGTTTTGCTATATACATTTATCTTTTAAGAGGAGGAAT”, the “cleaved RNA product abundance” value under setting [3] is 0.384.
As for “CGACATGTCCCGCTTCTTTCATTAATCCGTTAGCAACTGTTTGACTATATACATTTACCTTTTAAGAGGAGGAAT”, the “cleaved RNA product abundance” value under setting [3] came out at 0.605.
“ACAGACGAAGGAGCCGCAAAGAAATTATTAAGGGATGAATAATCCCTCATTATAAATATCTCTCACTTATTTAAA”: the “cleaved RNA product abundance” value runs as follows: under setting [1], 0.197; under setting [2], 0.514.
On to “ACAGACGAAGGAGCCGCAAAGAAGTTAATAAGGGATGAATGATCCCTCAATATAAATATCTCTCACTTATTTAAA”, for which the “cleaved RNA product abundance” value under setting [2] was 0.284.
For “ACAGACGAAGGAGCCGCAAAGAAGTTATTAAAGGATGAATAATCCTTCAATATAAATATCTCTCACTTATTTAAA”, the “cleaved RNA product abundance” value was found to be 0.646 under setting [1] and 0.86 under setting [2].
With “ACAGACGAAGGAGCCGCAAAGAAGTTGTTAAGGGATAAATAATCCCTCAATATAAATATCTCTCACTTATTTAAA”, the “cleaved RNA product abundance” value reads like this: under setting [1], 0.279; under setting [2], 0.688.
As for “CGACATGTCCCGCTTCTTTCATTAATCCGTTATCAACTGGTTTGCTATATACATTTACCTTTTAAGAGGAGGAAT”, the “cleaved RNA product abundance” value under setting [3] came to 0.204.
Still for that read-out and setting: next, “CGACATGTCCCGCTTCTTTCATTAATCCGTTTGCAACTGTTATGCTATATACATTTACCTTTTAAGAGGAGGAAT”: 0.428.
As for “ACAGACGAAGGAGCCGCAAAGAAGTTACTAAGGGATGAATAATCCCTCAAAATAAATATCTCTCACTTATTTAAA”, under setting [2], the “cleaved RNA product abundance” value is 0.288.
“ACAGACGAAGGAGCCGCAAAGAAGTTATTCAGGCATGAATAATCCCTCAATATAAATATCTCTCACTTATTTAAA”: the “cleaved RNA product abundance” value under setting [1] is 0.0983.
Consider “ACAGACGAAGGAGCCGCAAAGAAGATATTAAGGGATGAATAATCCCTCAATATAAATAACTCTCACTTATTTAAA”, for which the “cleaved RNA product abundance” value under setting [2] was determined as 1.07.
On to “ACAGACGAAGGAGCCGCAAAGAAGTTAATAAGGGATGAATAATCCCTCAAAATAAATATCTCTCACTTATTTAAA”, for which the “cleaved RNA product abundance” value under setting [2] was 0.25.
With “ACAGACGAAGGAGCCGCAAAGAAGTTATTAAGGGATAAATAATCCCTCAACATAAATATCTCTCACTTATTTAAA”, the “cleaved RNA product abundance” value under setting [2] came to 0.251.
For the sequence “ACAGACGAAGGAGCCGCAAAGAAATTATTAAGGGATGAATAATCCCTCAATATACATATCTCTCACTTATTTAAA”, the “cleaved RNA product abundance” value under setting [2] stood at 0.46.
For “ACAGACGAAGGAGCCGCAAAGAAGTTATTAAGTGATGAATTATCCCTCAATATAAATATCTCTCACTTATTTAAA”, the “cleaved RNA product abundance” value is, setting by setting: under setting [1], 0.104; under setting [2], 0.249.
Consider “ACAGACGAAGGAGCCGCAAAGAAGTTATTAAGGGATGATTAATCCCGCAATATAAATATCTCTCACTTATTTAAA”, for which, under setting [2], the “cleaved RNA product abundance” value came to 0.0868.
Turning to “CGACATGTCCCGCTTCTTTCATTATTCCGTGAGCAACTGTTTTTCTATATACATTTACCTTTTAAGAGGAGGAAT”, the “cleaved RNA product abundance” value under setting [3] worked out at 0.407.
Regarding “ACAGACGAAGGAGCCGCAAAGAAGTTATTAAGGGATGAATAATCCCTGAATATAAATATCTCTCACTTATTTAAA”, the “cleaved RNA product abundance” value amounted to 0.566 under setting [1], 0.684 under setting [2] and 0.675 under setting [4].
Regarding “ACAGACGAAGGAGCCGCAAAGAAGTTATTAACGGATGAATAATCCCTCCATATAAATATCTCTCACTTATTTAAA”, the “cleaved RNA product abundance” value under setting [2] was 0.129.
Consider “ACAGACGAAGGAGCCGCAAAGAAGTTATTAAGGGATGAAAAATCCCTCAATATAAATAGCTCTCACTTATTTAAA”, for which the “cleaved RNA product abundance” value under setting [2] turned out to be 0.554.
For the sequence “CGACATGTCCCGCTTCTTTCATTAATCCGTTAGCAATTGTTTTGCTATATACATTAACCTTTTAAGAGGAGGAAT”, the “cleaved RNA product abundance” value under setting [3] stood at 1.62.
For “CGACATGTCCCGCTTCTTTCATTAATCTGTTAGCAACTGTTTTGCTATATACTTTTACCTTTTAAGAGGAGGAAT”, the “cleaved RNA product abundance” value under setting [3] was found to be 0.728.
“ACAGACGAAGGAGCCGCAAAGAAATTATTAAGGGATGAATAATCCCTCAATATAAATATCTCTCACTTATTTAAA”: the “cleaved RNA product abundance” value worked out at 0.826 under setting [1], 0.783 under setting [2] and 0.759 under setting [4].
With “ACAGACGAAGGAGCCGCAAAGAAGTTATTAAGGGATGAATAATCCGTCAATAAAAATATCTCTCACTTATTTAAA”, under setting [2], the “cleaved RNA product abundance” value was 0.173.
Turning to “ACAGACGAAGGAGCCGCAAAGAAGTTATTAAGGGATGAATAATGGCTCAATATAAATATCTCTCACTTATTTAAA”, the “cleaved RNA product abundance” value under setting [2] worked out at 0.0723.
In the case of “ACAGACGAAGGAGCCGCAAAGAAGTTATTAAGGTATGAATGATCCCTCAATATAAATATCTCTCACTTATTTAAA”, the “cleaved RNA product abundance” value by setting is: under setting [1], 0.0901; under setting [2], 0.0732.
On to “CGACATGTCCCGCTTCTTTCATTAATCCGTTAGCAACTGTTTTGCTATATACATTTATCGTTTAAGAGGAGGAAT”, for which the “cleaved RNA product abundance” value under setting [3] was 0.92.
Take “ACAGACGAAGGAGCCGCAAAGAAGTTTTTAAGGGATGAATAATGCCTCAATATAAATATCTCTCACTTATTTAAA”: the “cleaved RNA product abundance” value by setting is: under setting [1], 0.121; under setting [2], 0.17.
Consider “ACAGACGAAGGAGCCGCAAAGAAATTATTAAGGGATTAATAATCCCTCAATATAAATATCTCTCACTTATTTAAA”, for which the “cleaved RNA product abundance” value was 0.978 under setting [1] and 0.912 under setting [2].
“CGACATGTCCCGCTTCTTTCATTAATGCGTTAGCAACTGTTTTGCTATATACATTCACCTTTTAAGAGGAGGAAT”: the “cleaved RNA product abundance” value under setting [3] is 0.329.
Consider “CGACATGTCCCGCTTCTTTCATTAATCCGTTTGCAACTGTTTTGCTACATACATTTACCTTTTAAGAGGAGGAAT”, for which the “cleaved RNA product abundance” value under setting [3] stood at 0.623.
For “CGACATGTCCCGCTTCTTTCATTAATCCGTTAGCAACAGTTTTGCTATATACATTTACCATTTAAGAGGAGGAAT”, the “cleaved RNA product abundance” value under setting [3] was found to be 0.522.
For the sequence “CGACATGTCCCGCTTCTTTCATTAATCCGTTAACAACTATTTTGCTATATACATTTACCTTTTAAGAGGAGGAAT”, the “cleaved RNA product abundance” value under setting [3] came out at 0.275.
“ACAGACGAAGGAGCCGCAAAAATGTTATTAAGGGATGAATAATCCCTCAATATAAATATCTCTCACTTATTTAAA”: the “cleaved RNA product abundance” value under setting [2] was found to be 0.983.
Consider “CGACATGTCCCGCTTCTTTCATTAAGCCGTTATCAACTGTTTTGCTATATACATTTACCTTTTAAGAGGAGGAAT”, for which the “cleaved RNA product abundance” value under setting [3] came to 0.21.
For “ACAGACGAAGGAGCCGCAGAGAAGTTATTAAGGGATTAATAATCCCTCAATATAAATATCTCTCACTTATTTAAA”, the “cleaved RNA product abundance” value under setting [2] amounted to 0.696.
Turning to “ACAGACGAAGGAGCCGCAAAGAAGTTATTAAGGGATAAATAATCCCTCTATATAAATATCTCTCACTTATTTAAA”, the “cleaved RNA product abundance” value was found to be 0.396 under setting [1] and 0.326 under setting [2].
With “ACAGACGAAGGAGCCGCCAAGAAGTTATTAACGGATGAATAATCCCTCAATATAAATATCTCTCACTTATTTAAA”, the “cleaved RNA product abundance” value under setting [1] came to 0.0909.

The record behind these values is the supplement of paper PMC11780869.
